Measurements as given in patent US20230406961A1 (DEUTSCHES KREBSFORSCHUNGSZENTRUM STIFTUNG DES FFENTLICHEN …, published 2023).

What follows are binders tested against T1, CD28 expressed on human CD4+ and CD8+ T cells (human, UniProt P10747 19-220) (assay: flow cytometry after incubation of PBMC with the constructs).
T1 construct: whole, on cells; also called T-cell-specific surface glycoprotein CD28
Experimental: Binding of the variants to normal human T cells was determined after incubation of PBMC with the respective constructs and subsequent analysis by flow cytometry

Row | binding result | Binder
1 | binds | bispecific endoglinxCD28 antibody in the IgGsc format, BiCo variant Lc-L (bispecific antibody, Humanized endoglin IgG, FcKO heavy chain, with the CD28 scFv (9.3-8, Vh-Vl) fused to the C-terminus of the kappa light chain without the long linker) heavy: QVQLVQSGAEVKKPGASVKVSCKASGYTFTSYWMHWVRQAPGQGLEWIGNIYPGSGSTFYDEKFKGRATLTVDTSISTAYMELSRLRSDDTAVYYCTRRNYVTGFDYWGQGTTVTVSSASTKGPSVFPLAPSSKSTSGGTAALGCLVKDYFPEPVTVSWNSGALTSGVHTFPAVLQSSGLYSLSSVVTVPSSSLGTQTYICNVNHKPSNTKVDKKVEPKSCDKTHTCPPCPAPPVAGPSVFLFPPKPKDTLMISRTPEVTCVVVGVSHEDPEVKFNWYVDGVEVHNAKTKPREEQYNSTYRVVSVLTVLHQDWLNGKEYKCKVSNKQLPSPIEKTISKAKGQPREPQVYTLPPSRDELTKNQVSLTCLVKGFYPSDIAVEWESNGQPENNYKTTPPVLDSDGSFFLYSKLTVDKSRWQQGNVFSCSVMHEALHNHYTQKSLSLSPGK light: DIQLTQSPSFLSASVGDRVTITCKSSQSVLYSSNQKNYLAWYQQKPGKAPKLLIYWASTRESGVPSRFSGSGSGTEFTLTISSLQPEDFATYYCHQYLSSYTFGQGTKLEIKRTVAAPSVFIFPPSDEQLKSGTASVVCLLNNFYPREAKVQWKVDNALQSGNSQESVTEQDSKDSTYSLSSTLTLSKADYEKHKVYACEVTHQGLSSPVTKSFNRGECASQVQLVESGGGVVQPGRSLRLSCAASGFSLSDYGVHWVRQAPGKGLEWLGVIWAGGGTNYNSALMSRKTISKDNSKNTVYLQMNSLRAEDTAVYYCARDKGYSYYYSMDYWGQGTTVTVSSGGGGSGGGGSGGGGSDIQMTQSPSTLSASVGDRVTIICRASESVEYYVTSLMQWYQQKPGKAPKLLIFAASNVESGVPSRFSGSGSGTEFTLTISSLQPDDFATYYCQQSRKVPYTFGQGTKLEIKR
2 | binds | bispecific endoglinxCD28 antibody in the IgGsc format, BiCo variant Lc+L (bispecific antibody, Humanized endoglin IgG, FcKO heavy chain, with the CD28 scFv (9.3-8, Vh-Vl) fused to the C-terminus of the kappa light chain through a (GGGGS)3 linker; also called BiCo-1; Bico1) heavy: QVQLVQSGAEVKKPGASVKVSCKASGYTFTSYWMHWVRQAPGQGLEWIGNIYPGSGSTFYDEKFKGRATLTVDTSISTAYMELSRLRSDDTAVYYCTRRNYVTGFDYWGQGTTVTVSSASTKGPSVFPLAPSSKSTSGGTAALGCLVKDYFPEPVTVSWNSGALTSGVHTFPAVLQSSGLYSLSSVVTVPSSSLGTQTYICNVNHKPSNTKVDKKVEPKSCDKTHTCPPCPAPPVAGPSVFLFPPKPKDTLMISRTPEVTCVVVGVSHEDPEVKFNWYVDGVEVHNAKTKPREEQYNSTYRVVSVLTVLHQDWLNGKEYKCKVSNKQLPSPIEKTISKAKGQPREPQVYTLPPSRDELTKNQVSLTCLVKGFYPSDIAVEWESNGQPENNYKTTPPVLDSDGSFFLYSKLTVDKSRWQQGNVFSCSVMHEALHNHYTQKSLSLSPGK light: DIQLTQSPSFLSASVGDRVTITCKSSQSVLYSSNQKNYLAWYQQKPGKAPKLLIYWASTRESGVPSRFSGSGSGTEFTLTISSLQPEDFATYYCHQYLSSYTFGQGTKLEIKRTVAAPSVFIFPPSDEQLKSGTASVVCLLNNFYPREAKVQWKVDNALQSGNSQESVTEQDSKDSTYSLSSTLTLSKADYEKHKVYACEVTHQGLSSPVTKSFNRGECASGGGGSGGGGSGGGGSQVQLVESGGGVVQPGRSLRLSCAASGFSLSDYGVHWVRQAPGKGLEWLGVIWAGGGTNYNSALMSRKTISKDNSKNTVYLQMNSLRAEDTAVYYCARDKGYSYYYSMDYWGQGTTVTVSSGGGGSGGGGSGGGGSDIQMTQSPSTLSASVGDRVTIICRASESVEYYVTSLMQWYQQKPGKAPKLLIFAASNVESGVPSRFSGSGSGTEFTLTISSLQPDDFATYYCQQSRKVPYTFGQGTKLEIKR
3 | binds | bispecific endoglinxCD28 antibody in the IgGsc format, BiCo variant Hc-L (bispecific antibody, Humanized endoglin IgG (K-ro22-2 / K-ro22-6), FcKO, with the CD28 scFv (9.3-8, Vh-Vl) fused to the C-terminus of the heavy chain without the long linker) heavy: QVQLVQSGAEVKKPGASVKVSCKASGYTFTSYWMHWVRQAPGQGLEWIGNIYPGSGSTFYDEKFKGRATLTVDTSISTAYMELSRLRSDDTAVYYCTRRNYVTGFDYWGQGTTVTVSSASTKGPSVFPLAPSSKSTSGGTAALGCLVKDYFPEPVTVSWNSGALTSGVHTFPAVLQSSGLYSLSSVVTVPSSSLGTQTYICNVNHKPSNTKVDKKVEPKSCDKTHTCPPCPAPPVAGPSVFLFPPKPKDTLMISRTPEVTCVVVGVSHEDPEVKFNWYVDGVEVHNAKTKPREEQYNSTYRVVSVLTVLHQDWLNGKEYKCKVSNKQLPSPIEKTISKAKGQPREPQVYTLPPSRDELTKNQVSLTCLVKGFYPSDIAVEWESNGQPENNYKTTPPVLDSDGSFFLYSKLTVDKSRWQQGNVFSCSVMHEALHNHYTQKSLSLSPGKASQVQLVESGGGVVQPGRSLRLSCAASGFSLSDYGVHWVRQAPGKGLEWLGVIWAGGGTNYNSALMSRKTISKDNSKNTVYLQMNSLRAEDTAVYYCARDKGYSYYYSMDYWGQGTTVTVSSGGGGSGGGGSGGGGSDIQMTQSPSTLSASVGDRVTIICRASESVEYYVTSLMQWYQQKPGKAPKLLIFAASNVESGVPSRFSGSGSGTEFTLTISSLQPDDFATYYCQQSRKVPYTFGQGTKLEIKR light: DIQLTQSPSFLSASVGDRVTITCKSSQSVLYSSNQKNYLAWYQQKPGKAPKLLIYWASTRESGVPSRFSGSGSGTEFTLTISSLQPEDFATYYCHQYLSSYTFGQGTKLEIKRTVAAPSVFIFPPSDEQLKSGTASVVCLLNNFYPREAKVQWKVDNALQSGNSQESVTEQDSKDSTYSLSSTLTLSKADYEKHKVYACEVTHQGLSSPVTKSFNRGEC
